Reference: IntAct's records for PubMed 36753016

Target: ubp18_human USP18 (UniProt Q9UMW8)
Sequence (Q9UMW8 whole entry): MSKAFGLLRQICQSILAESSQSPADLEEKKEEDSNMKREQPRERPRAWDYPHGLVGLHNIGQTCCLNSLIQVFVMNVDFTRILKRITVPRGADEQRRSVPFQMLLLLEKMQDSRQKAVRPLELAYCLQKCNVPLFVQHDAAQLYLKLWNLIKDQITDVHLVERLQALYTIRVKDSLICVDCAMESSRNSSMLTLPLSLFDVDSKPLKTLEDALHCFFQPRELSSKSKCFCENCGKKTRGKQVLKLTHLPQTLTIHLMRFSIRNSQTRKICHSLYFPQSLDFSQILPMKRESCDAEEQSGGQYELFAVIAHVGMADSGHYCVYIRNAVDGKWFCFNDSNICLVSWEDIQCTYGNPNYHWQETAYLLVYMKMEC

Signal transducer and activator of transcription 2 (Homo sapiens), P52630 A219V
effect of a mutation on the interaction: decreasing interaction strength
